# Results published in PMC11575137 (BMC Biology, 2024).
# Target: biotinylated GTP-loaded KRAS (recombinant human KRAS loaded with GppCp) (human, UniProt P01116 1-189)
# Assay: BLI
# Sequence of biotinylated GTP-loaded KRAS (recombinant human KRAS loaded with GppCp) (P01116 whole entry): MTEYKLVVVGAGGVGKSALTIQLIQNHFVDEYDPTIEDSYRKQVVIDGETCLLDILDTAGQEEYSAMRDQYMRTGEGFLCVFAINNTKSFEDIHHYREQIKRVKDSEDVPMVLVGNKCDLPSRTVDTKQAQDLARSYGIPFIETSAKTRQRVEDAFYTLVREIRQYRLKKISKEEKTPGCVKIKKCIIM
row,Binder,Kd
1,DVKVFSEDGTSKVVE [peptide_(GRB10)],78 µM
2,IVRVFLPNKQRTVVP [peptide_(BRAF)],150 µM
3,VVNVGGKTVK [peptide_(RAB4B)],84 µM
4,VIKVYSEDETSRALD [peptide_(GRB14)],87 µM
